Data from the domain aggregation screens of Martell et al. (2025).

Test: soluble fraction after stress (log2 fold change); higher = more stays soluble; pooled small domains, quantitative proteomics
Details: stress: 50 degC
Procedure, shortened: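 Custom libraries of small protein domains were pooled and measured in a high-throughput format, with quantitative proteomics as the read-out. Each library was stressed at 50°C. The value is the log2 fold change in the amount of each protein that stays soluble after stress, used as a measure of aggregation propensity; higher values mean more of the protein stays soluble.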

| Sequence | soluble fraction (log2) |
| --- | --- |
| HMDIGNKIKELRTEQKMTQSDLAERLGVTKSSISSYENGSRLPSYDILLKIARIFKVSTDILLG | 0.514 |
| HMLVGKSVIMKTNESSSGMIAGKVNYWENIDGKIYLGINGKLYDIADVDTVLDNDYYDKLVN | -0.347 |
| HMPPDIKVVGVTVASDPRASFAMLSSNGKTLSYRVNDLIEGTEYHLIKVEAAAITIATAGGQSTQIAF | -0.585 |
| HMTLDVALSKEIKYMLKEEHYLPGDKLPSERKLAELFHVQRLTVRGALNLLLQDKTIISKPRSGYYVAPKR | -3.1 |
| HMRSNADALIGRTARVSQTIVENGFGRVALDGDDWKAQAADGSRIEEGQNVIVKDRDSIILTVEKE | 0.074 |
| HMTQPAEINRLVEQMGSSDYKSRQEAYERLHQMGPGILDLIYPYRNHADPEIQTRVRELILSYRW | 0.264 |
| HMLNNVDIHKLSEDLLLYKIKIDIKLKNIEDAISTIDYFSNKFPNSDLMPYVIYEKKLIDNI | -2.5 |
| HMDFSVTIKGTSFPVMVSLKKMKQVRLKVFPSGEIKLSAPVGTPEKWIVEYLNDKMSWIEEKMDLFVQ | -0.787 |
| HMNVKQALLELMQRKPELTGSAIARAIGYSPAVISQYLKDGYPGDVVKLTTLIGDFIRRIDEKERS | -0.182 |
| HMQSLSDQVFFYLKERIINNEMVPGSIISIEKLTSEFGISNTPVREAIVRLAGLDLVTIHRNKNITVS | -2.39 |
| HMRLDPENFYIRAVTYYRNGDWQRALSQLDEAIKLGTAIEYPALQARIYLEQGMRDEFIAASEK | -1.71 |
| HMKIMSLSERHQKILELLKVNGIVSVNSLSRQLNVSSVTIRKDLGLLEEKKLLYRSHGGAIQID | -3.08 |
| HMIAKIEGQISYVGNRFLIVDVSGVGYKLFVTNEAISLSKVEESIKLWVHTAVRENSIDLYG | -0.7 |
| HMIEEIETQFLFDFGLIGHPNSAKIREKLSEALGIGYVNGKQLQKRLMMFGITKQQVVDVLTD | -4.94 |
| HMDLFREERRQAILDWLATAGRVSVAELSASFGVSEVTVRADLQALADRRLVVRTHGGAMMAG | -1.43 |
| HMETTMVEIKAEFTIRNRLDIPAMMEKAGYKDRGEFLSVLEKITGNYNWDRDVKKGDTFMVPSKLA | -0.777 |
| HMAVTGRVDLRIKPWGYVSVDGAAKVSSPPTMQLKLAPGRHEIEITNPAGAAVTKTVDVIAGKSVTVQHN | 0.0967 |
| HMSSKSLAALSPQEYRLLPLVAEGKTNKEIASALALSDKTVKNYLANIFSKLGITRRTQAATLYARAL | -0.167 |
| HMGVLGVDALAAAAEVSVDTVRYYQHLGLLEPPRREGRRAVYGPSHLARMGEIRRLAAAGFTLDQIRQLAE | -2.1 |

| Sequence | soluble fraction (log2) |
| --- | --- |
| HMERAYGVRVSLRLDDPFRTLLGADWSRTHWFASAEERDAALLEMSRKHEFSRPGDQPALVYEKVQN | -0.728 |
| HMAGPTIVTNSQGVPNYHLVKRGDTVSQIAQRYGLNYRQIGAINNLDSKYTIYSGQWLKLWQG | -0.702 |
| HMQAKDVEVPDYVGKSFVSIKENNPNDFKFEVKSEYDESKEMGVILDQEPKGGSMKVKSGSTITVTV | -0.0106 |
| HMTPILTAQQVVAALQAAGYRNVHDLEFEHGRWEADAVNAAGQRVELHINPYTGAIERERLD | ≥ 0.62 |
| HMKTGIIYGVNGPVIYLKGDTGFKISEMVYVGPEKLVGEVIGLKKHMTTVQVFEETTGLKPGETVIGTGDA | -0.486 |
| HMFHFELNAAKQALEDRKTIDRAKGILMRQRGMSEDDAYKLLRTTAMSQNRKVIDVAQALVTAADLL | -0.0832 |
| HMKKYISEEQAKQAALETAGGGSVVKIKFTTDDGIKVYEIDIINGNYEYEITVHAETGKILDVDKERIH | -1.04 |
| HMVQVDNELTEFSVQSITRGIDALGEVTIRVTAPDGGVYTGRGADNDIIVSSTKAYLNALNRLLNDK | -0.229 |
| HMQSMSADDWSEKARVLMSAGIIVMGQEAKEKILNLKSLVPLIEAASASNVSMIDSRTFDELLMIIP | -1.26 |
| HMSEITMMQMEIPEGHNWENRLVKDVSMPTGSLAVMIKRHGETLIPGGDTRILAGDTIVLSVPAYESG | -0.0716 |
| HMSDEEAISKLPGVGPAILEKLKEAGYNDIMTIAVDSPKNLAELAEIGEPTAAKIIAAAKKAAD | 0.0933 |
| HMPPTEQVYRSHVPPQYDGFPIEKYFTTRFSYQDVEEWSRQILAGKIEVNGKTALIGQILSASDLTVTRA | -0.855 |
| HMKNYYEVLGVPRDAAAPDIKRAFRKLAKQFHPDHNPGDAKAEERFKLVSQAYDVLGDEEKRKLYDQFGE | 0.173 |
| HMSRLGINTTIEDIKMVGKIIMPLLKQGQSVYQILASHPEIPYSEKTLYSYIEDNIFKDAGIDISVFDL | -0.931 |
| HMATIGVGSKVTLTTYVDWVGNGLLKTRDFYFVSELNGKRAVLRADSMNGAIYAAVNIDNLRI | -2.56 |
| HMTAQLSITLNGETRRAAAGSIADLVRSLELDPAKVAVERNGLIVPRSTLAEVALGDGDVLEIVHFV | -0.186 |
| HMPSTKDGIKEFLSSGAMKGIGRKTASAIVSRFGIDTLKIIEQEPQRLTEVSGIGKKTAQRIAEAFGKH | -0.103 |
| HMLTEKEEEVMQILWDNGPLFVREILEFYPDPKPHYNTVSTVIRVLEEKNFASHKAYGNTYQYFP | -0.0146 |
| HMRTRSDVKRAAIIQAAKDAFQEYGVNATSMDKLAEMASVSKRTVYNHFSAKEELVMHIVKE | 0.166 |
